Assay results reported in patent US20170021001A1.

Molecular target: TCRs of Du51-specific CD8^+CD45RC^low Tregs (CD8^+CD40Ig Tregs) (rat)
Assay: cell-based or functional assay

CD25 expression at the cell surface of CD8^+CD40Ig Tregs, fold vs. no peptide (6 days coculture with matured syngeneic pDCs) (fold vs. no peptide) | CD25 upregulation on CD8^+CD40Ig Tregs, fold vs. no peptide (fold vs. no peptide) | Binder
1.67 |  | YLRYDSDVGEYRAVTE [peptide Bu31 (…)]
 | 2.04 | REEYARFDSDVGEYR [peptide 51-18 (…)]
2.07 |  | NREEYARFDSDVGEYR [peptide Du51 (…)]
